According to patent publication US20190184025A1:

Legend:
[1] = molecular target: Human EphA2, biotinylated (in house) (Human) (UniProt P29317); assay: SPR, biotinylated human EphA2 on streptavidin
[2] = molecular target: Mouse EphA2 Fc fusion (Mouse) (UniProt Q03145); assay: SPR, mouse EphA2-Fc captured by anti-human IgG
[3] = molecular target: Mouse EphA2 (Ecto), C-terminal polyHis (Mouse) (UniProt Q03145); assay: FP competition against Reference Compound C (Study 2)
[4] = molecular target: Rat EphA2, biotinylated (in house) (Rat) (UniProt D3ZBN3); assay: SPR, biotinylated rat EphA2 on streptavidin

Chain of Mouse EphA2 Fc fusion (Mouse) (Q03145 26-535 limits assumed): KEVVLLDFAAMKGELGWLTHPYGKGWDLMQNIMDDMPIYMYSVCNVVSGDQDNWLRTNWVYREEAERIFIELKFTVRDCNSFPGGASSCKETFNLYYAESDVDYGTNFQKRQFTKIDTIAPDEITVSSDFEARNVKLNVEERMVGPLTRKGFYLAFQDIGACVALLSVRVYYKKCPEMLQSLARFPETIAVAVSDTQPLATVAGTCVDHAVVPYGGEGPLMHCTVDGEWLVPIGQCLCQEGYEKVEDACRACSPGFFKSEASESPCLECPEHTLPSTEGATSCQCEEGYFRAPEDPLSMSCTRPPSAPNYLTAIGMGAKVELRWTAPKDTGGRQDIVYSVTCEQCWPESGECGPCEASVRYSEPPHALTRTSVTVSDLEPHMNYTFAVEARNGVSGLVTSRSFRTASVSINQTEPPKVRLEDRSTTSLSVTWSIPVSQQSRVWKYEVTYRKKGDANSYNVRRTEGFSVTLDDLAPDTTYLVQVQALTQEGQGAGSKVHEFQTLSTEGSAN
Chain of Mouse EphA2 (Ecto), C-terminal polyHis (Mouse) (Q03145 26-538): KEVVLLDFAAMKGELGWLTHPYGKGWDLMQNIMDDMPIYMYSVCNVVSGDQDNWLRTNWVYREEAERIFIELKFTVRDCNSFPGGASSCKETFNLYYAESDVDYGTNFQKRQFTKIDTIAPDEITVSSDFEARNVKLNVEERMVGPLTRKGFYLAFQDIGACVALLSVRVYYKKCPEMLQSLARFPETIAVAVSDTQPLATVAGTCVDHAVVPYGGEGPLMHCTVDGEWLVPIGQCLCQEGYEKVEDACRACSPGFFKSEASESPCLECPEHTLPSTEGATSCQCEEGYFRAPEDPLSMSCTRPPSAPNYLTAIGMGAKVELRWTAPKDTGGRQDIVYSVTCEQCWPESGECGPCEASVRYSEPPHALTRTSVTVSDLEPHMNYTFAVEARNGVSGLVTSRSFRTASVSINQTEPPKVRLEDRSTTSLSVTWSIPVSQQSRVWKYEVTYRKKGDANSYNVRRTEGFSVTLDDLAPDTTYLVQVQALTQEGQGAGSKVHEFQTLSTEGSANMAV

Kd [1]: 1.17 nM
t1/2 [1]: 10 min
Kd [2]: 2.53 nM
t1/2 [2]: 10.4 min
Ki [3]: 5.5 nM
Kd [4]: 2.96 nM
t1/2 [4]: 12.6 min
Substance: BCY6136 (peptide)
